The text below walks through data of ChEMBL document CHEMBL2074313, “Polyspecific substrate uptake by the hepatic organic anion transporter Oatp1 in stably transfected CHO cells” (Am J Physiol, 1999).

Common to all, as to assay type: functional, cell-based
Data set [1] addresses T1, Oatp1 (Solute carrier organic anion transporter family member 1A1) (Rattus norvegicus, UniProt P46720).
T1 sequence (P46720 whole entry): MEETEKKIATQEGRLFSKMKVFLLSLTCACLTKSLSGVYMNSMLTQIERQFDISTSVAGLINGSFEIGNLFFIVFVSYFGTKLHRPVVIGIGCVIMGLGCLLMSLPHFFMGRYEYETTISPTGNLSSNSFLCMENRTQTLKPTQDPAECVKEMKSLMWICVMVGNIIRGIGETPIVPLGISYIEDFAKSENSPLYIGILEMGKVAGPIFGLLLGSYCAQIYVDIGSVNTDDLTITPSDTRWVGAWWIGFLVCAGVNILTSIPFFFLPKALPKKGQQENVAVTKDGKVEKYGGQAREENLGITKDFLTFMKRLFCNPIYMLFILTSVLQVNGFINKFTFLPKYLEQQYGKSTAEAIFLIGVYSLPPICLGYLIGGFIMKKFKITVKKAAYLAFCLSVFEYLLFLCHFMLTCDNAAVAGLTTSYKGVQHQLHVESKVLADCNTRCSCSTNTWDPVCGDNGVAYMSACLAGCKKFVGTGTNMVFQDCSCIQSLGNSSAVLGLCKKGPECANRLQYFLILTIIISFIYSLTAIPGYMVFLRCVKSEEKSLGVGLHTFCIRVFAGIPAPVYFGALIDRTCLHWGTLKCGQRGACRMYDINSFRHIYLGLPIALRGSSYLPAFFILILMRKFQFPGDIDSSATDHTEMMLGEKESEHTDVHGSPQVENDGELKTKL
In words: (§1) TP_TRANSPORTER: uptake in Oatp1-expressing CHO-03 cell. To be noted: hamster, CHO-03 cells expressing Oatp1.

Substrate in data set [2]: COc1cc(C)c(S(=O)(=O)N[C@@H](CC(=O)O)C(=O)N[C@H](Cc2ccc(C(=N)N)cc2)C(=O)N2CCCCC2)c(C)c1C
The data set is described as §1.

Substrate in data set [3]: C[C@]12CC[C@@H]3c4ccc(O)cc4CC[C@H]3[C@@H]1CC[C@@H]2O[C@@H]1O[C@H](C(=O)O)[C@@H](O)[C@H](O)[C@H]1O
The data set is described as §1.

Substrate in data set [4]: C[C@H](CCC(=O)NCCS(=O)(=O)O)[C@H]1CC[C@H]2[C@@H]3[C@H](O)C[C@@H]4C[C@H](O)CC[C@]4(C)[C@H]3CC[C@]12C
The description is as §1.

Substrate in data set [5]: O=C1OC(c2ccc(O)c(S(=O)(=O)O)c2)(c2ccc(O)c(S(=O)(=O)O)c2)c2c(Br)c(Br)c(Br)c(Br)c21
The description is as §1.

Substrate in data set [6]: C[C@H](CCC(=O)NCCS(=O)(=O)O)[C@H]1CC[C@H]2[C@@H]3[C@@H](O)C[C@@H]4C[C@H](O)CC[C@]4(C)[C@H]3CC[C@]12C
Described as §1.

Substrate in data set [7]: [H][C@@]12CC=C3C[C@@H](OS(=O)(=O)O)CC[C@]3(C)[C@@]1([H])CC[C@]1(C)C(=O)CC[C@@]21[H]
The description is as §1.

Substrate in data set [8]: C[C@]12CC[C@@H]3c4ccc(OS(=O)(=O)O)cc4CC[C@H]3[C@@H]1CCC2=O
The description is as §1.

As usually defined, the Km is the concentration of substrate that gives half-maximal velocity.

Turning to `C[C@@H]1Cc2c(Cl)cc(C(=O)N[C@@H](Cc3ccccc3)C(=O)O)c(O)c2C(=O)O1` [3R14S-OCHRATOXIN A], in data set [1], the Km was 29 µM.
Regarding `C[C@@H]1O[C@@H](O[C@H]2C[C@@H](O)[C@]3(CO)[C@H]4[C@H](O)C[C@]5(C)[C@@H](C6=CC(=O)OC6)CC[C@]5(O)[C@@H]4CC[C@]3(O)C2)[C@H](O)[C@H](O)[C@H]1O` [OUABAIN], the Km in data set [1] amounted to 3000 µM.

B1: Solute carrier organic anion transporter family member 1A1 (Rattus norvegicus) (protein)
chain: T1 sequence (P46720 whole entry)
With B1, the Km in data set [2] amounted to 57 µM; in data set [3], 4 µM; in data set [4] it was 7 µM; in data set [5], 3 µM; in data set [6], 13 µM; in data set [7], 5 µM. For the same molecule, the Km in data set [8] was determined as 11 µM.
